{"source": "the DeepSol protein solubility set"}
{"assay": "soluble on expression in E. coli; label from the status in PepcDB or PDB records"}
{"sequence": "MGSDKIHHHHHHMPECSKAWAVREEPELLTDRRHTDDGGEFVSQPRIIEPAIRTLIDTPLRVGESPTWDERTGDLWFVDILAPAIFCLSPSGKLQRFDMPAQIGCLGLCQSNLIVAALKTGVHLLNPQNGELELLCDPDEGRADSRLNDGKVGPDGHFWVGTRDEADVPTGNARLYRVSSSGHVERFIDGDMLTSNGLAWSPDETRMYHSDSSGLLLQVFDFDVQTGRLGPAKRLHDFQPDEGRPDGAATDSEGCYWSAGVQAGRLNRFTPDGELFEIYKMPFKGPTMPCFGGPELKTLYVTSLVTDTNGVATSGTLVAFDAPVAGAPIHKFPL", "soluble on expression in E. coli": "not soluble"}
{"sequence": "MSNYAKEERLTGGNVSSVYRSENTVRRELKPGSEKTHKLLQHLENKGFHYAPKFLGVDEKDREILSFIEGEAGNYPLKEYMRSNDVLKEIAKMLRLYHDAVSDFPLLNDWKPMDHTPNNIEVLCHNDFAIYNIIFNNEKPVGIIDFDVAAPGPRLWDIAYTLYTCVPLSRVYYTESGEAVHYDSPQHADRIKERVKLFVQSYGKNMDEDYLGMVLLRLEGLCTYMKRKAQEGDLNFQRMIDEGHLEHYEKDIKFIRDHRAEWS", "soluble on expression in E. coli": "not soluble"}
{"sequence": "RLSLRAKAKEINLENLEEFVSEVKARNLKAYLAVNSTVNEDRLEEAGNVINAAAKAGVDAVIAWDPAVILKARKSGLRIHISTQANTTNHETAEFYRALGAERIVLSRELSLEEIREIRQRSEVEVETFVHGAMCMAVSGRCHLSAYVLGKSGNCGECTQPCRWEWELHGENNLVMESRGKYLLSAKDLCMIEHIPALLGARIDSFKVEGRLRDPGYLEVVSRCYREAIDACKEGTYTREKVDSWLSKLSSVYNRGFSTGFYFGIPGLEGFSPEKSMNASEKKRRAAGIVENYYPRQHAAAIKLLEEGLEIGNEILIEGSTTYLKQRVTSLIKNGMSLQKAEKGDEVGLAVDGTVRRNDRIFI", "soluble on expression in E. coli": "not soluble"}
{"sequence": "MADQEHIDAGLLSTNFDMIQALPLNVKQRVCALKNLQMKTIQIESDFYKRVHELEIEFEGKFKSTFDQRKAIVAGEVEPTKEQIDTPILEGLEGDQLAELYKAAEADPSAKGIKDFWLTALRTHDLVAEAIEEHDVPILSYLTDVTTAASKDPAGFKIEFHFATNPYFKNQVLTKTYLLGFDPDAEAPLQFDGPHVIRAVGDTIEWEDGKNVTKKAVKKKQKKGANAGKFLTKTVKADSFFNFFEPPKSKDERNEDEDDEQAEEFLELDYEMGQAIRDTIIPRAVLFYTGELQSDDMFDFPGEDGDDVSDFSDDEA", "soluble on expression in E. coli": "soluble"}
{"sequence": "MQEISFRNDILPLKDKLFRLALRITLDRAEAEDVVQDTMIRVWNKRDEWSQFESVEAYCLIVAKNLAIDRSQKKEAQNVEITPEMEEEPDANSPYDQLVHDEKMNIINRLVNELPEKQRLIMQLRDIEGESYKKIATLLNLTEEQVKVNLFRARQKVKQRYLEIDEYGL", "soluble on expression in E. coli": "not soluble"}
{"sequence": "MGSDKIHHHHHHMMSYVRMTLYHGTDRKSAEKIMESKEILPSQGDNHWLGDGIYFYEEEFHAFKWIWYKEKNRNRLLKNFAIIKAEVICEESRIFDLTKIEHKLLFDMMYKLINTTKLRLDKLRGDMCAEGVVINYMFKNKELGYNKRFDIVRALFPIPVKKYQKIENREKNKKYKERTHRLTFMPEIQVCVKNPSVIKKLEWYDLEKTIDKFLIYTEIYKEDLGI", "soluble on expression in E. coli": "not soluble"}
{"sequence": "MGSDKIHHHHHHMTLPISVFIITKNEEKHIAKTLASVKDMDEVILVDSGSTDKTLSIAQQFGATIFSHEWQGYAKQKQYAMSLCRNEWVLNLDGDEAINPQLIAAFKEIIEQDKADSVRFWRNDIFIGKPLSSLSKKPNNHRLYKKSKSFFDDSRLAHESATVDGKEIFINQVFDHYGYDSIAAITNKNNTYSTLKADEKFVKGKSFSHLKLFLIFPLVFIKEYLLQRKLFSGRRGFILAVMEAYYAFLKEAKLFENHQNKPN", "soluble on expression in E. coli": "not soluble"}
{"sequence": "MSLAPSPSSSTAPAALQQLGWQARLRWVHGICQGLPKVAQQLDEFLANQTGVVSTAREMQEWREAWVGFQQHKDAWVQACSQALQQAARKPPSQAGESSASGSAPLNFELLSDDVVENKILASRMALAMGETLQPGFEAMRLRMQALEGHELPSRDMFRAETICLHLVEQWLSCGMERKHLLRAVEPLQNALAPLMESEYGILHKLLDAKGVSKAQDAPLRVKRTEGGPPTGAMPLGGASGFGHAAEPGWSSSAMQQFMSAGMAAGIGTEPGIALPPGASAGLGMLARARHRALDAMNQLRQVLSQPAVGIPGLMPGAPLVPMPPASAALAQALQEQQQLMVAELRAQYPAATGSAMAMPAMDYSPAAIDQLVNQVRERSADWKQKAQTTGEKATIEVVALMFQSILSEDRLPPSIRVWFARLQVPVLRVALAEPQFFSDLNHPARKLIDRMGSCVMGFDASSINGNALETEIRRVVQVIEQYPETGQKVFALVLREFEAFLTKHFAQNRSTAKITSVAQQVEQKETLAIQYTIELRNMLTDMPVREEVRDFLFKSWADVLAMATVRYGAKDARAMRFKQAASELVWSASAKPSRQERARVIQGLPTLLQTLREGLELVSVTGDAQSTAIKVLTDTLAQAFMSKTAAIPAERIEAMAKRLSELEKYISEDGKLDDMPLSSESIELMLGVDAGDLNVIPNTDSPVEPAMLEWARSLESGRWFTLDHNGSRVQVQYVWHSRRRHLHLFASLDGHCYLLQAQRMATYLQAGLLAVHDAEALTVRATRDALQKIQANPEREGHHHHHH", "soluble on expression in E. coli": "soluble"}
{"sequence": "MKDFVKGRKIYTRTYNKCDPSLVVVERAKRRLGETKYNPFYNNCEHFARYCKVGIPISDQVENYKSLVGNSGIDASDALLNNGKSIVDTTQNLMKTTLDKISNFWKNDNDDDDGFFEYYLEHHHHHH", "soluble on expression in E. coli": "not soluble"}
{"sequence": "MGSDKIHHHHHHCSTEVTEYRQQQPALDIFHYFQGRTEAWGMVQDRSGKQLRRFHVEIDGDVVGDTLTLHERFVYDDGEKQQRIWRIRRTGDNRYQGTAGDIEGVASGQAAGNAFHWRYSMNVEASGSRWLLHFDDWMFLQDGSHLFNKTEMKKFGITVATVTLFFTRTTAEERTAP", "soluble on expression in E. coli": "not soluble"}
{"sequence": "MPYRKYREKKYETKYREAFKLFQEKIGITFTDEKLLIQAFTHSSYVNEHRKKPHEDNERLEFLGDAVLELTVSQYLFQKYPTMSEGELTKLRAAIVCEPSLVRFANELSFGSLVLLGKGEEMTGGRERPALLADVFEAFIGALYLDQGLETVWGFLKEIVYPKINEGAFSHVMDYKSQLQELIQRDGSGNIEYQILQEKGPAHNREFVSRVTLNNVALGLGSGKSKKEAEQQAAAEALKKLKEQL", "soluble on expression in E. coli": "soluble"}
{"sequence": "MGSDKIHHHHHHMARLSEGWSKEPFFLFFHPPKSPTKKENIKMNYRETLQAVDTEKALSVIGINSTLQGAYVKFNCPECEQQALIKAYGEKKNLWYCPKCKKSGHIISLTMTKKNIQWEEAKDLLLKARNGVKKITEEFNLKYDLQYNDFIKDKGLSEDICKFLEIGTPKGKTMLSGCVAFLVRDEVGMRVAYFGIKMKDEKHVFHKSFNPEQYLYGFQNLDFAYDVYFTTDLFECIKHIENGFQCVCNFGLPYISNEQMELLEKAERVTFSIRDELVKPFALQLTQRQKFYRFIK", "soluble on expression in E. coli": "not soluble"}
{"sequence": "MSSVGAGFRLARAGWVLVREGVIAALPGEELSGLPKFGWQLARLFTRRRALAYQRSDRLAKAVVRLGPSYVKLGQFLATRPDVVGNDMALDLAMLQDKMHTFPKAEAVAAIEASLGRKVRDLYAEFGLEHHHHHH", "soluble on expression in E. coli": "not soluble"}
{"sequence": "MAEERGRPQYRPNCNGLSSYYRERFGSHSPEVYLNLRISGFDDRLEREQIKQYLTQELKKYAPFEIKVVKNPEEDERLAYVNFERNDCARKVRYTLMDRLKSVLGKRVQCDPAGILRDQEGKYIPDRFNRAQHGADSKREGGSGSGNRGRPTKEPSTWRLKQDDDEATRTLFVGNMPSDVKEREIRHVFEEHGKVEEVDIKTPINTDAAYAFVMFQTVDQAIQAKAEEQDRPIRAGGSRMKIGYGKSQVSRRLFVGGLGSWCDKEILQKAFGEFGFVENIDYDHGQPYAYVVYENTHTSQEACRSLRGACISKGNHPIMVDYAKDLTAQPEKQQFMRKRRASKSPVGASAVRTPPGSPKDVVRNFAELEEAYAATWSGKMALKKTDYPVKFYRVYGAERLPVKLLRDEDDVPLRLLITQRLSLSSQNLLFDKLASCSSKELSLGVITGKKELSDLQPLVNYFTNKEAAGVVTVPGGILYIFPFCEFALKLLAEFTPQVNVFNENCPFLLGALAVRAPGTP", "soluble on expression in E. coli": "not soluble"}
{"sequence": "WYNFTKRAVKIVLIPVSWFMKAERFAKFENNISEKIDSFYEESVRMTKDWR", "soluble on expression in E. coli": "not soluble"}
